The results in this text go back to US20150011730A1.

For test [1], the target named is CDK2/cyclin A (as used in the binding assay) (UniProt P24941).
Test [2] has as its target CDK4/cyclin D1 (as used in the binding assay) (UniProt P11802).

Sequence of CDK4/cyclin D1 (as used in the binding assay) (P11802 whole entry, chain 1 of 2): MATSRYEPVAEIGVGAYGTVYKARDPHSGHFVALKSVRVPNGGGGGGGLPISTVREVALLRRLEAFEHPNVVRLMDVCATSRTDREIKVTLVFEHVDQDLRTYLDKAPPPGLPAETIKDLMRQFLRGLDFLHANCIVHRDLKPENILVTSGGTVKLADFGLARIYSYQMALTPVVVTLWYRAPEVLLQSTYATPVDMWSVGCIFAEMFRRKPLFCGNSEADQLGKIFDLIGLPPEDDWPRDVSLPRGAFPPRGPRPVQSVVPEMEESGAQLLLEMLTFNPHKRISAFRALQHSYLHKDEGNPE
Sequence of CDK4/cyclin D1 (as used in the binding assay) (P24385 whole entry, chain 2 of 2, further chain): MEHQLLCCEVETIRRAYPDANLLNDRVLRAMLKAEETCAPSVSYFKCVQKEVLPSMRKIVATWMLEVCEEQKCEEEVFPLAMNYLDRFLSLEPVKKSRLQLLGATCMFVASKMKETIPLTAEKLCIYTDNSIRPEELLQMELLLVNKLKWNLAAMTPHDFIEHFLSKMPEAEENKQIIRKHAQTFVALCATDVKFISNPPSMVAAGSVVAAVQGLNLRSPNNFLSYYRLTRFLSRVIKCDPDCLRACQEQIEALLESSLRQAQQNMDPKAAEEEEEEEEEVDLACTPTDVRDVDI

Broadly, the IC50 is the concentration needed to halve the response being measured. High values mean lower potency, low ones higher potency. For R{bLeu}NMeF (peptide), the IC50 in test [1] worked out at 0.505 µM; in test [2] it was 61.2 µM.
Taken in the same sequence, the figures for R{bLeu}NMeF-NH2 (peptide) were 0.405 µM and 89.7 µM.
